Experimental data published in paper PMC7849316, “Tyrosine phosphorylation regulates hnRNPA2 granule protein partitioning and reduces neurodegeneration” (The EMBO Journal, 2020).

Biological target: T1, ch‐TOG (CKAP5) TOG domain 1 (TOG D1, residues 1–250) (UniProt Q14008 1-250, AlexaFluor 555 or 405 (NHS ester) on ~1% of the protein in the droplet assays; 2H 15N labeled for the PRE experiments)
T1 construct: microtubule-associated protein ch-TOG (CKAP5), TOG domain 1, residues 1–250; also called TOG domain 1 (D1); source: E. coli BL21 Star (DE3), purified (HisTrap, Superdex 75, TEV cleavage, second HisTrap)
T1 sequence (Q14008 1-250): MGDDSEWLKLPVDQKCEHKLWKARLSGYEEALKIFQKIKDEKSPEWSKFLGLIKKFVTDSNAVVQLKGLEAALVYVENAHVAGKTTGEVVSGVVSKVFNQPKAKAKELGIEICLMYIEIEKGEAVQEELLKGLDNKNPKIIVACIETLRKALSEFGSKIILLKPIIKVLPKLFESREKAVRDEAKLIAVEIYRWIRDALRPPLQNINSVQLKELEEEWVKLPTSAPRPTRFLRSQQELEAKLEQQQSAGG
Experiment: NMR paramagnetic relaxation enhancement (PRE); TROSY-based 1HN R2 at 850 MHz, 25°C; NMR-invisible hnRNPA2 LC with a paramagnetic label at S285C or S329C mixed with 2H 15N TOG D1; paramagnetic against diamagnetic samples
Settings: both partners purified

Kd [µM] | Binder
> 100 | hnRNPA2 LC S285C with a paramagnetic label (MTSL) at the engineered cysteine (domain or fragment, human, UniProt P22626-2 190-341, looked up, small (~120 Da) paramagnetic label (MTSL) at the engineered cysteine 285, hnRNPA2 low complexity domain, human, residues 190–341; Purified and labeled as described in Ryan et al, 2018; source: E. coli BL21 Star (DE3), purified from inclusion bodies (His-tag purification), MTSL-labeled) GRGGNFGFGDSRGGGGNFGPGPGSNFRGGSDGYGSGRGFGDGYNGYGGGPGGGNFGGSPGYGGGRGGYGGGGPGYGNQGGGYGGGYDNYGGGNYGCGNYNDFGNYNQQPSNYGPMKSGNFGGSRNMGGPYGGGNYGPGGSGGSGGYGGRSRY
> 100 | hnRNPA2 LC S329C with a paramagnetic label (MTSL) at the engineered cysteine (domain or fragment, human, UniProt P22626-2 190-341, looked up, small (~120 Da) paramagnetic label (MTSL) at the engineered cysteine 329, hnRNPA2 low complexity domain, human, residues 190–341; Purified and labeled as described in Ryan et al, 2018; source: E. coli BL21 Star (DE3), purified from inclusion bodies (His-tag purification), MTSL-labeled) GRGGNFGFGDSRGGGGNFGPGPGSNFRGGSDGYGSGRGFGDGYNGYGGGPGGGNFGGSPGYGGGRGGYGGGGPGYGNQGGGYGGGYDNYGGGNYGSGNYNDFGNYNQQPSNYGPMKSGNFGGSRNMGGPYGGGNYGPGGCGGSGGYGGRSRY
